# B1: Fab fragments of Ab 14C12 (Fab, V domains shown)
# VH: EVQLQQSGPELVKPGASVKLSCKASGYTFTSSVMHWLKQKSGQGLEWIGYINPYNDGTKYNEKFTAKATLTSDKSSSTVYMELSGLTSEDFAVYYCARSGGLLRGYWYFDVWGAGTTVTVSS
# VL: DLVLTQSPATLSVTPGDSVSLSCRASQDITNTLHWYHQKSHESPRLLIKYVSQSISGIPSRFSGSGSGTVFTLSINSVETEDFGVYFCQQSTSWPYTFGGGTKLEIKR
# Molecular target: human monoclonal antibody BO2C11, FVIII-specific IgG4kappa inhibitory antibody against the C2 domain
# Test: cell-based or functional assay
binder,measurement,value
B1,neutralisation of BO2C11 inhibitory activity (chromogenic assay),50 % neutralisation at 1/8 BO2C11/Fab molar ratio
